# Data reported in paper PMC10531703.
# Target: F10_Y11delinsLN mutant human γS-crystallin (human) (UniProt P22914)
# Sequence (P22914 other isoform, or with tags, fused parts or gaps mutant): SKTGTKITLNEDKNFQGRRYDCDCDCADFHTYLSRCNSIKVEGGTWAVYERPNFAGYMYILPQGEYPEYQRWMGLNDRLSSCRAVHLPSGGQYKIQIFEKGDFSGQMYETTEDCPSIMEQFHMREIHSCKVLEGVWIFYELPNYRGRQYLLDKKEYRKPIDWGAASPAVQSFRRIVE
# Sequence of human αA-crystallin (P02489 whole entry): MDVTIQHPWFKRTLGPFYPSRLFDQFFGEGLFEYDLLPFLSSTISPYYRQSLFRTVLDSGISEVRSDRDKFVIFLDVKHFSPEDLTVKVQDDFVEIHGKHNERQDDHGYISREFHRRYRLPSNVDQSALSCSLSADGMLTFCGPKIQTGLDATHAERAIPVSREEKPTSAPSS
substance,measurement,value
human αA-crystallin (from UniProt P02489 1-173) (natural protein),"particle radius by dynamic light scattering, 30 to 60 °C; 1:1 molar ratio mixture (the mutant alone: 1063 nm radius after heating to 60 °C)",13.3 nm
